Results on 36 variants are retold here after the supplement of paper PMC6757056.

± gives the standard deviation of the averaged measurements.

The labels stand for the following.
B1: library; a variant is named by its letters at N, in order (parent)
chain: GCUGUCACCGGUGUAUUACCCUAGUGGUCGACCGGUCUGAUGAGUCUNNNNNNAGACGAAACAGC

In data set [1] the parent is B1. Description: FACS-Seq fitted mean relative fluorescence mCherry/BFP without ligand (log10 relative fluorescence); ligand: hypoxanthine (xanthine aptamer); higher = higher reporter protein expression. As to conditions: HEK293T, ligand present: no. The method, boiled down: (§1)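 Fluorescence comes from a normal fit to bin counts, normalized against controls. HEK293T libraries lentivirally given a ribozyme-switch mCherry reporter and an EF1α-BFP marker were enriched, incubated 48 h with or without ligand, and sorted by mCherry/BFP into 6 bins. Bin genomic DNA was PCR-amplified, barcoded and sequenced on MiSeq. The log10(mCherry/BFP) mean was scaled to five spiked-in control ribozymes.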

In data set [2] the parent is B1. Description: normalized RNA/DNA level with ligand (relative to sTRSVctl = 100) (log10 (% of sTRSVctl)); ligand: hypoxanthine (xanthine aptamer); higher = less ribozyme self-cleavage, higher mRNA level. The settings on record: ligand concentration (+) RNA-Seq: 5 mM, HEK293T, reporter: mCherry (pCS4076), ligand present: yes. How it is done:
(§2)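 Hammerhead (sTRSV) ribozyme switch libraries with a ligand aptamer grafted on stem I and a randomized N4-6 loop II, cloned into the 3' UTR of mCherry and transiently transfected into HEK293T cells; RNA-Seq 72 h post transfection with ligand added 1 h before transfection; RNA read count / plasmid DNA read count normalized to the non-cleaving sTRSVctl (x100), log10; sequences with >100 DNA reads. FACS-Seq: lentiviral library sorted into 6 bins after 48 h ligand, log-normal fit mean of mCherry/BFP scaled to controls. Printed sequences are partial switch sequences.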

In data set [3] the parent is B1. The experiment in a line: normalized RNA/DNA level without ligand (relative to sTRSVctl = 100) (log10 (% of sTRSVctl)); ligand: hypoxanthine (xanthine aptamer); higher = less ribozyme self-cleavage, higher mRNA level. The settings on record: HEK293T, reporter: mCherry (pCS4076), ligand present: no. How it is done:
as §2

In data set [4] the parent is B1. Description: FACS-Seq fitted mean relative fluorescence mCherry/BFP with ligand (log10 relative fluorescence); ligand: hypoxanthine (xanthine aptamer); ligand concentration (+) FACS-Seq: 5 mM; higher = higher reporter protein expression. The settings on record: HEK293T, ligand present: yes. An outline of the steps: as §1

UCGAAG: the “FACS-Seq fitted mean (log10)” value came to 0.5 ± 0.074 in data set [1] and 0.746 ± 0.025 in data set [4]. The “normalized RNA/DNA level with ligand (log10)” value in data set [2] was found to be 1.87 ± 0.039. Besides, the “normalized RNA/DNA level without ligand (log10)” value in data set [3] stood at 1.417 ± 0.0057.
For GCCGAG, the “FACS-Seq fitted mean (log10)” value in data set [1] worked out at 0.182 ± 0.0042; in data set [4] it was 0.5906 ± 0.0027. In addition, the “normalized RNA/DNA level with ligand (log10)” value in data set [2] was determined as 1.856 ± 0.013. In data set [3], the “normalized RNA/DNA level without ligand (log10)” value came out at 1.39 ± 0.019.
In the case of GCCGAU, the “FACS-Seq fitted mean (log10)” value was 0.193 ± 0.041 in data set [1] and -0.0573 ± 0.24 in data set [4]. Further, the “normalized RNA/DNA level with ligand (log10)” value in data set [2] was 1.96 ± 0.027. Moreover, the “normalized RNA/DNA level without ligand (log10)” value in data set [3] was 1.76 ± 0.045.
The corresponding values for GCCGAA are 0.359 ± 0.087, 0.445 ± 0.055, 1.96 ± 0.071 and 1.756 ± 0.0038.
The corresponding values for ACGCUG are 0.109 ± 0.026, 0.566 ± 0.016, 1.91 ± 0.052 and 1.45 ± 0.031.
Turning to ACCUAG, the “FACS-Seq fitted mean (log10)” value in data set [1] is -0.692 ± 0.013; in data set [4], -0.308 ± 0.028. Besides, the “normalized RNA/DNA level with ligand (log10)” value in data set [2] worked out at 1.86 ± 0.03. The “normalized RNA/DNA level without ligand (log10)” value in data set [3] is 1.58 ± 0.016.
On the same counts, the results for ACCUAC are 0.113 ± 0.032, 0.264 ± 0.013, 1.92 ± 0.035 and 1.85 ± 0.05.
On the same counts, the results for UCCAGU are 0.305 ± 0.066, 0.502 ± 0.0098, 1.96 ± 0.066 and 1.771 ± 0.013.
The corresponding values for GCAUCG are 0.0876 ± 0.11, 0.53188 ± 0.00023, 1.964 ± 0.018 and 1.506 ± 0.0042.
With ACGAAG, the “FACS-Seq fitted mean (log10)” value in data set [1] was -0.023 ± 0.0073; in data set [4], 0.501 ± 0.023. The “normalized RNA/DNA level with ligand (log10)” value in data set [2] was 1.49 ± 0.041. Further, the “normalized RNA/DNA level without ligand (log10)” value in data set [3] is 1.072 ± 0.0031.
As for ACGAAU, the “FACS-Seq fitted mean (log10)” value came to 0.0248 ± 0.013 in data set [1] and 0.504 ± 0.01 in data set [4]. Moreover, the “normalized RNA/DNA level with ligand (log10)” value in data set [2] was 1.77 ± 0.0059. Besides, the “normalized RNA/DNA level without ligand (log10)” value in data set [3] was found to be 1.19 ± 0.025.
For the variant ACGAAA, the results for the “FACS-Seq fitted mean (log10)” value in data set [1] and in data set [4] were 0.129 ± 0.049 and 0.425 ± 0.036, respectively. For the same variant, in data set [2], the “normalized RNA/DNA level with ligand (log10)” value came out at 1.86 ± 0.039. Besides, the “normalized RNA/DNA level without ligand (log10)” value in data set [3] turned out to be 1.47 ± 0.056.
On the same counts, the results for GCCGCA are 0.533 ± 0.054, 0.587 ± 0.027, 1.96 ± 0.067 and 1.845 ± 0.0021.
On the same counts, the results for GCCGCG are 0.226 ± 0.012, 0.576 ± 0.024, 1.94 ± 0.045 and 1.521 ± 0.0049.
Consider UCAUGA, for which the “FACS-Seq fitted mean (log10)” value in data set [1] was determined as 0.457 ± 0.055; in data set [4], 0.53 ± 0.061. Also, the “normalized RNA/DNA level with ligand (log10)” value in data set [2] stood at 1.885 ± 0.014. Besides, in data set [3], the “normalized RNA/DNA level without ligand (log10)” value was found to be 1.5 ± 0.032.
For ACCGCG, the “FACS-Seq fitted mean (log10)” value in data set [1] came to 0.331 ± 0.028; in data set [4] it was 0.608 ± 0.026. For the same variant, in data set [2], the “normalized RNA/DNA level with ligand (log10)” value turned out to be 1.826 ± 0.015. In data set [3], the “normalized RNA/DNA level without ligand (log10)” value came out at 1.5 ± 0.097.
Take ACCGCC: the “FACS-Seq fitted mean (log10)” value in data set [1] was 0.708 ± 0.051; in data set [4], 0.737 ± 0.025. Besides, the “normalized RNA/DNA level with ligand (log10)” value in data set [2] is 1.938 ± 0.0023. In addition, in data set [3], the “normalized RNA/DNA level without ligand (log10)” value was determined as 1.879 ± 0.0089.
For CCGAAG, the “FACS-Seq fitted mean (log10)” value is -0.0351 ± 0.034 in data set [1] and 0.496 ± 0.027 in data set [4]. Also, in data set [2], the “normalized RNA/DNA level with ligand (log10)” value was found to be 1.719 ± 0.0075. The “normalized RNA/DNA level without ligand (log10)” value in data set [3] was found to be 1.2 ± 0.14.
On to CCGAAA, for which the entries for the “FACS-Seq fitted mean (log10)” value in data set [1] and in data set [4] were 0.595 ± 0.015 and 0.689 ± 0.05, respectively. For the same variant, the “normalized RNA/DNA level with ligand (log10)” value in data set [2] is 1.91 ± 0.049. Further, the “normalized RNA/DNA level without ligand (log10)” value in data set [3] came to 1.7 ± 0.04.
The corresponding values for ACAUCG are 0.306 ± 0.048, 0.584 ± 0.052, 1.932 ± 0.019 and 1.57 ± 0.016.
CCGAUU: the figures for the “FACS-Seq fitted mean (log10)” value in data set [1] and in data set [4] were 0.52 ± 0.04 and 0.524 ± 0.036, respectively. The “normalized RNA/DNA level with ligand (log10)” value in data set [2] worked out at 1.963 ± 0.019. In data set [3], the “normalized RNA/DNA level without ligand (log10)” value worked out at 1.78 ± 0.027.
As to GCAUUG, the “FACS-Seq fitted mean (log10)” value in data set [1] worked out at 0.25 ± 0.015; in data set [4], 0.602 ± 0.062. In data set [2], the “normalized RNA/DNA level with ligand (log10)” value amounted to 1.88 ± 0.0068. The “normalized RNA/DNA level without ligand (log10)” value in data set [3] was 1.4 ± 0.022.
As to GCCUCG, the “FACS-Seq fitted mean (log10)” value in data set [1] was 0.33703 ± 0.00012; in data set [4], 0.649 ± 0.049. Besides, in data set [2], the “normalized RNA/DNA level with ligand (log10)” value was 1.91 ± 0.039. Moreover, the “normalized RNA/DNA level without ligand (log10)” value in data set [3] was 1.6 ± 0.029.
Take UCGAUC: the “FACS-Seq fitted mean (log10)” value in data set [1] worked out at 0.537 ± 0.11; in data set [4], 0.59 ± 0.045. Also, the “normalized RNA/DNA level with ligand (log10)” value in data set [2] was found to be 1.98 ± 0.033. Moreover, in data set [3], the “normalized RNA/DNA level without ligand (log10)” value amounted to 1.96 ± 0.031.
Regarding GCGACC, the “FACS-Seq fitted mean (log10)” value was determined as 0.07588 ± 0.00049 in data set [1] and 0.5 ± 0.093 in data set [4]. For the same variant, in data set [2], the “normalized RNA/DNA level with ligand (log10)” value was determined as 1.88 ± 0.025. For the same variant, in data set [3], the “normalized RNA/DNA level without ligand (log10)” value came out at 1.52 ± 0.038.
On the same counts, the results for GCGACA are 0.145 ± 0.041, 0.28 ± 0.021, 1.888 ± 0.012 and 1.57 ± 0.04.
On the same counts, the results for GCGACG are 0.442 ± 0.017, 0.666 ± 0.035, 1.81 ± 0.021 and 1.3 ± 0.099.
On the same counts, the results for ACGCAA are 0.184 ± 0.18, 0.149 ± 0.02, 1.88 ± 0.022 and 1.55 ± 0.039.
Regarding ACGCAG, the “FACS-Seq fitted mean (log10)” value in data set [1] was -0.302 ± 0.02; in data set [4] it was 0.377 ± 0.039. The “normalized RNA/DNA level with ligand (log10)” value in data set [2] came to 1.58 ± 0.041. In addition, the “normalized RNA/DNA level without ligand (log10)” value in data set [3] amounted to 1.09 ± 0.044.
Regarding ACGCAU, the “FACS-Seq fitted mean (log10)” value in data set [1] worked out at 0.3211 ± 0.00042; in data set [4], 0.534 ± 0.042. For the same variant, in data set [2], the “normalized RNA/DNA level with ligand (log10)” value came to 1.79 ± 0.021. In data set [3], the “normalized RNA/DNA level without ligand (log10)” value is 1.42 ± 0.032.
The corresponding values for GCGAUC are 0.2339 ± 0.00091, 0.601 ± 0.025, 1.87 ± 0.041 and 1.46 ± 0.038.
With GCGAUU, the “FACS-Seq fitted mean (log10)” value was -0.0877 ± 0.0032 in data set [1] and 0.166 ± 0.016 in data set [4]. The “normalized RNA/DNA level with ligand (log10)” value in data set [2] is 1.88 ± 0.06. In addition, the “normalized RNA/DNA level without ligand (log10)” value in data set [3] was found to be 1.65 ± 0.026.
The corresponding values for GCGAUG are 0.314 ± 0.033, 0.754 ± 0.064, 1.77 ± 0.028 and 1.24 ± 0.092.
The corresponding values for UCCAUG are -0.135 ± 0.032, -0.271 ± 0.076, 1.88 ± 0.074 and 1.49 ± 0.025.
On the same counts, the results for ACCUUG are 0.241 ± 0.0074, 0.521 ± 0.04, 1.88 ± 0.014 and 1.6 ± 0.055.
In the case of UCAUUU, the “FACS-Seq fitted mean (log10)” value is 0.631 ± 0.012 in data set [1] and 0.769 ± 0.024 in data set [4]. In addition, the “normalized RNA/DNA level with ligand (log10)” value in data set [2] worked out at 1.96 ± 0.052. Moreover, the “normalized RNA/DNA level without ligand (log10)” value in data set [3] came to 1.91 ± 0.031.
